This note sets out measurements from the supplement of paper PMC9732359.

± gives the uncertainty stated by the source.

The data set in a line: protein stability index of a GFP-peptide fusion (yeast GPS) (PSI 1-4); higher = more stable; sorted into four equal gates, so the index is relative within each strain. The essentials:
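Plasmids in a pooled yeast library fused tiled 17-residue yeast protein peptides downstream of GFP and also expressed Cherry. Mid-log cultures grown without leucine were sorted into four equal gates by GFP/Cherry fluorescence ratio. Each gate's plasmids were PCR-amplified and Illumina-sequenced, and reads were matched to strains by barcodes. The protein stability index is derived by multiplying each gate's read frequency by its gate number and summing the results.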

Consider FDFLDDGTAQLSNNKTD [YJR042W/NUP85], for which the protein stability index amounted to 3.38 ± 0.23 (doa10∆), 3.52 ± 0.21 (pdr5∆), 3.5 ± 0.099 (san1∆) and 3.39 ± 0.12 (ubr1∆).

In turn, LCLEKLMCLSSKYCEKS [YCS4] came in with a protein stability index (doa10∆) of 1.55 ± 0.051, a protein stability index (pdr5∆) of 2.34 ± 0.087, a protein stability index (san1∆) of 2.27 ± 0.18 and a protein stability index (ubr1∆) of 1.92 ± 0.059.

In the case of EAKSFQDEAELVEEKTP [RPC82], the protein stability index reads like this: (doa10∆) 3.53 ± 0.12; (pdr5∆) 3.46 ± 0.14; (san1∆) 3.51 ± 0.14; (ubr1∆) 3.5 ± 0.1.

Take YGIVAMAATATDKIGRS [FAS2]: the protein stability index amounted to 1.64 ± 0.063 (doa10∆), 1.82 ± 0.06 (pdr5∆), 1.65 ± 0.092 (san1∆) and 2.26 ± 0.051 (ubr1∆).

EVDVCDKCGLMGYSGWC [RET1] showed a protein stability index (doa10∆) of 2.15 ± 0.098, a protein stability index (pdr5∆) of 2.73 ± 0.086, a protein stability index (san1∆) of 2.32 ± 0.19 and a protein stability index (ubr1∆) of 2.39 ± 0.088.

With NNNINENELFNDRKQTT [SSN2], the protein stability index (doa10∆) was 2.71 ± 0.12, the protein stability index (pdr5∆) amounted to 3.09 ± 0.1, the protein stability index (san1∆) came out at 2.87 ± 0.1 and the protein stability index (ubr1∆) was determined as 2.78 ± 0.14.

The sequence SREIAQPSSSRYNGGND [SMB1] registered a protein stability index (doa10∆) of 3.19 ± 0.087, a protein stability index (pdr5∆) of 3.22 ± 0.071, a protein stability index (san1∆) of 3.22 ± 0.053 and a protein stability index (ubr1∆) of 3.31 ± 0.055.

On to SQLQPQPQPQPQQQQQH [YDL088C/ASM4], for which the protein stability index (doa10∆) is 2.79 ± 0.087, the protein stability index (pdr5∆) is 2.95 ± 0.074, the protein stability index (san1∆) is 2.51 ± 0.13 and the protein stability index (ubr1∆) was 2.88 ± 0.088.

In the case of NVLLLDSNGDFNEDQLF [RRP46], the protein stability index was found to be 3.17 ± 0.064 (doa10∆), 3.04 ± 0.054 (pdr5∆), 3.32 ± 0.055 (san1∆) and 3.17 ± 0.044 (ubr1∆).

With QRDFRKHGAVHMSTYLK [RPL21B], the protein stability index reads like this: (doa10∆) 2.65 ± 0.048; (pdr5∆) 2.42 ± 0.042; (san1∆) 2.48 ± 0.054; (ubr1∆) 2.8 ± 0.038.

For the sequence PSTSSNMDVGNPRKRKA [GAL11], the protein stability index reads like this: (doa10∆) 2.65 ± 0.18; (pdr5∆) 2.25 ± 0.12; (san1∆) 2.75 ± 0.12; (ubr1∆) 3.27 ± 0.088.

Sequence YGSSPKLLATSTKIIML [SRB8] gave a protein stability index (doa10∆) of 1.59 ± 0.065, a protein stability index (pdr5∆) of 1.7 ± 0.063, a protein stability index (san1∆) of 1.63 ± 0.16 and a protein stability index (ubr1∆) of 1.24 ± 0.069.

Sequence LHNFESVAPTKQREIVK [NUT1] showed a protein stability index (doa10∆) of 2.71 ± 0.084, a protein stability index (pdr5∆) of 2.55 ± 0.065, a protein stability index (san1∆) of 2.7 ± 0.053 and a protein stability index (ubr1∆) of 2.6 ± 0.044.

Take LIERYYPKLTLDFQTNK [RPS17A]: the protein stability index runs as follows: (doa10∆) 3.12 ± 0.074; (pdr5∆) 3.01 ± 0.061; (san1∆) 3.02 ± 0.045; (ubr1∆) 2.74 ± 0.053.

As for LVIKSGKYTLGYKSTVK [RPL30], the protein stability index stood at 2.75 ± 0.079 (doa10∆), 2.96 ± 0.061 (pdr5∆), 2.5 ± 0.079 (san1∆) and 2.87 ± 0.05 (ubr1∆).

TKLIGVLILLHAERDLA [SRP68]: the protein stability index reads like this: (doa10∆) 1.28 ± 0.078; (pdr5∆) 2.26 ± 0.17; (san1∆) 2.48 ± 0.088; (ubr1∆) 2.78 ± 0.098.

Take SQQAGLDPYERAIYSYL [YDL116W/NUP84]: the protein stability index amounted to 2.81 ± 0.12 (doa10∆), 3.19 ± 0.083 (pdr5∆) and 2.83 ± 0.099 (ubr1∆).

Regarding GDLLNAEVQSLFQDGSA [RRP4], the protein stability index runs as follows: (doa10∆) 2.18 ± 0.096; (pdr5∆) 2.74 ± 0.13; (san1∆) 2.94 ± 0.068; (ubr1∆) 2.37 ± 0.096.

KLLDSGCENPADVFRRC [SRP72]: the protein stability index is, setting by setting: (doa10∆) 2.46 ± 0.058; (pdr5∆) 1.72 ± 0.047; (san1∆) 2.13 ± 0.1; (ubr1∆) 2.16 ± 0.071.

In turn, RVAKGSGTSVFEVEMIL [SRP54] yielded a protein stability index (doa10∆) of 3.28 ± 0.071, a protein stability index (pdr5∆) of 3.26 ± 0.099, a protein stability index (san1∆) of 3.39 ± 0.076 and a protein stability index (ubr1∆) of 3.42 ± 0.12.

Consider IDEHIDLGIKYDPSIGI [RPL11A], for which the protein stability index worked out at 2.84 ± 0.035 (doa10∆), 3.06 ± 0.039 (pdr5∆), 2.91 ± 0.03 (san1∆) and 2.903 ± 0.029 (ubr1∆).

Turning to STSGDPSEFHCLQDALD [SSN2], the protein stability index is, setting by setting: (doa10∆) 3.07 ± 0.16; (pdr5∆) 3.1 ± 0.12; (san1∆) 3.08 ± 0.068; (ubr1∆) 3.43 ± 0.11.

Turning to MLSFCPSCNNMLLITSG [RPC11], the protein stability index reads like this: (doa10∆) 1.26 ± 0.082; (pdr5∆) 2.97 ± 0.13; (ubr1∆) 2.83 ± 0.072.

In the case of FPMKQGVLLPTRIKLLL [RPS6A], the protein stability index is, setting by setting: (doa10∆) 1.26 ± 0.053; (pdr5∆) 1.39 ± 0.053; (san1∆) 1.17 ± 0.094; (ubr1∆) 1.29 ± 0.038.

Turning to GVSRQIAASAFLSLLNL [REC8], the protein stability index by setting is: (doa10∆) 1.5 ± 0.047; (pdr5∆) 1.31 ± 0.045; (san1∆) 1.17 ± 0.14; (ubr1∆) 1.23 ± 0.038.

PIKNRKNDTHYLLPDDF [BRN1]: the protein stability index (doa10∆) stood at 2.98 ± 0.079, the protein stability index (pdr5∆) stood at 2.93 ± 0.094, the protein stability index (san1∆) came out at 2.85 ± 0.061 and the protein stability index (ubr1∆) stood at 2.95 ± 0.058.
